From patent publication US20160346402A1

Target: TPP-2305, hTNFRSF12 amino acids a28-80 (recombinant human TWEAKR protein) (human) (UniProt Q9NP84)
Experiment: SPR (Biacore T100), antibody captured, TWEAKR TPP-2305 as analyte, 1:1 model

Kd: 2.9 nM | koff: 0.011 s⁻¹ | kon: 3.8e+06 M⁻¹ s⁻¹
B1: ITEM-1 (antibody, from another filing, V domains shown)
VH: EVKLEESGGGLVQPGGSMKLSCVASGFSFSNYWMNWVRQSPEKGLEWVAEIRLKSNNYATHYAESVKGRFTISRHDSKSSVYLQMNNLRAEDTGIYYCTRAYADYFDYWGQGTTLTVSS
VL: DIVLTQSPASLVVSLGQRATISCRASQSVSTSTYSYMHWYQQKPGQPPKILIKYASNLESGVPARFSGSGSGTDFTLNIHPVEEEDTATYYCQHSWEIPYTFGGGTKLEIKR
